Results published in publication PMC4481117, “The opioid peptide dynorphin A induces leukocyte responses via integrin Mac-1 (αMβ2, CD11b/CD18)” (Molecular Pain, 2015).
cellulose = cellulose membrane support; βAla = NCCC(=O)O

Columns and labels:
[1] = target: T1, 125I-labeled αMI-domain, active form (αM Glu123-Lys315) (UniProt P11215 139-331, 125I label); experiment: peptide or protein array; 9-mer peptides on cellulose membrane (SPOT synthesis), blocked with 1 % BSA, incubated with 10 μg/ml 125I-labeled αMI-domain in TBS with 1 mM MgCl2; autoradiography and densitometry; details: both partners purified
T1 construct: also called recombinant αMI-domain; α7 helix-truncated αMI-domain
T1 sequence (P11215 139-331): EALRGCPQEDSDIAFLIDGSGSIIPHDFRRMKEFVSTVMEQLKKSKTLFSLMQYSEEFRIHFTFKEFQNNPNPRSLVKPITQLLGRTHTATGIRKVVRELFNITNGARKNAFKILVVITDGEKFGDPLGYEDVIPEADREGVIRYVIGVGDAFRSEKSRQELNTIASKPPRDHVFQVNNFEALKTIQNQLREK

[2] = target: integrin Mac-1 on IC-21 murine macrophages (mouse (endogenous in IC-21), UniProt P05555 17-1153; P11835 24-771); experiment: cell-based or functional assay
integrin Mac-1 on IC-21 murine macrophages, sequence (P05555 17-1153, chain 1 of 2): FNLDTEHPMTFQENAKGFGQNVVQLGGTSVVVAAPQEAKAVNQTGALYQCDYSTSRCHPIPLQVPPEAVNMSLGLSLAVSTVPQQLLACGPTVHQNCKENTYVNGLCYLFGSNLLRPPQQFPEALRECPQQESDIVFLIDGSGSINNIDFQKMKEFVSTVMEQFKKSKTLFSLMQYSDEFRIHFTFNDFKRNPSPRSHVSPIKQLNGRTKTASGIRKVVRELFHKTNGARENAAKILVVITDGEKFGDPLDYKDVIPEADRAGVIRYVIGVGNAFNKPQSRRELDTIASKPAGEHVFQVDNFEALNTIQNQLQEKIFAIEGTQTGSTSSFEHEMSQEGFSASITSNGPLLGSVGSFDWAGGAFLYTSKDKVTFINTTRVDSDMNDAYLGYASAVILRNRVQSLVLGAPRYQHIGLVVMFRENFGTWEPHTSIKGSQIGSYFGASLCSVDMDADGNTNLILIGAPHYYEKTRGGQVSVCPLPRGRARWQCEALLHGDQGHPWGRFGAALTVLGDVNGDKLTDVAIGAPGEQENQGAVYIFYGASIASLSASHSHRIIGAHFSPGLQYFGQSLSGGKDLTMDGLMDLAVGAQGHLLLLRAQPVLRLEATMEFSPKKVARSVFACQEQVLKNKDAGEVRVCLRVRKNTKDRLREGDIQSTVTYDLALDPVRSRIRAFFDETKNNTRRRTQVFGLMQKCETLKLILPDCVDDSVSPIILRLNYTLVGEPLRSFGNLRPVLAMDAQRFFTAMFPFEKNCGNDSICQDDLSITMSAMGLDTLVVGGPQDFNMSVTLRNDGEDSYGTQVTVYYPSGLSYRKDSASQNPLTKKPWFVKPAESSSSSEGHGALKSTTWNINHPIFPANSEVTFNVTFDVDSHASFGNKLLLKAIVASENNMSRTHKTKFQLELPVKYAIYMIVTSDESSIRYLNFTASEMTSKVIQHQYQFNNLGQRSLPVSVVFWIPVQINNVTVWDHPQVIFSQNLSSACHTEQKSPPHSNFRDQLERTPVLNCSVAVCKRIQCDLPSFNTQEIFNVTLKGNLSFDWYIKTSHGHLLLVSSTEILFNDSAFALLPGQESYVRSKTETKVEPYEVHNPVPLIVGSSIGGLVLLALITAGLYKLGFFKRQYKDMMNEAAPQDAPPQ
integrin Mac-1 on IC-21 murine macrophages, sequence (P11835 24-771, chain 2 of 2): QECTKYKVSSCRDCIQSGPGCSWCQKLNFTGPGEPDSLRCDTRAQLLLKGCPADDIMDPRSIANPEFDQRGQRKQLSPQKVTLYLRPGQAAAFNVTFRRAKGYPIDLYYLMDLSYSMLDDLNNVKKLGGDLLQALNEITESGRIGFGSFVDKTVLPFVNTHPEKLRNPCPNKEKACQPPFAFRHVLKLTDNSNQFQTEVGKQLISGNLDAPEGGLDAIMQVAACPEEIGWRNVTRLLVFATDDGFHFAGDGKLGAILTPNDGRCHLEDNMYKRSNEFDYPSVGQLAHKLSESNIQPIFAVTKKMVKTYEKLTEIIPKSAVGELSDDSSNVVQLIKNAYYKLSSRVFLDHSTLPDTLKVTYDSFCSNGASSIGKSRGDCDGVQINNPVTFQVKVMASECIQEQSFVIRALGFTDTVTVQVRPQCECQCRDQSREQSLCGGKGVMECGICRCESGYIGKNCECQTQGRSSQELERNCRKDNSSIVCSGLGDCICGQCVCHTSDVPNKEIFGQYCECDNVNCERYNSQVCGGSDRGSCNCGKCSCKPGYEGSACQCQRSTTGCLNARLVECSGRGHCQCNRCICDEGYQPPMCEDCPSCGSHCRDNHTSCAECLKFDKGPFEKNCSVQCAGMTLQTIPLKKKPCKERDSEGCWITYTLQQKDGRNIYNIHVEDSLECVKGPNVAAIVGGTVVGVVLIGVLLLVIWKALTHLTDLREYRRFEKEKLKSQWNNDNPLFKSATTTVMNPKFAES

binding result [1] | phagocytosis of Dyn A-treated fluorescent latex beads by IC-21 murine macrophages, against control beads [2] [fold] | Binder
binds | – | Ac-FLRRIRPKL-{βAla-βAla-cellulose} (9-mer of dynorphin AB; source: synthetic peptide, parallel spot synthesis on cellulose membrane) [dynorphin AB library peptide, spot 2 (FLRRIRPKL)]
– | ~10 | YGGFLRRIRPKLKWDNQ [dynorphin A]
binds | – | Ac-YGGFLRRIR-{βAla-βAla-cellulose} (9-mer of dynorphin AB; also called peptide #1; source: synthetic peptide, parallel spot synthesis on cellulose membrane) [dynorphin AB library peptide, spot 1 (YGGFLRRIR)]
